Two substances from patent US20240409619A1 can be followed below.

Common to all, as to assay: cell-based or functional assay
Test [1] deals with SARS-COV-2 spike of variant B.1.1.7 (Alpha) on pseudotyped virus (SARS-COV-2) (UniProt P0DTC2).
Test [2] deals with SARS-COV-2 spike of variant B.1.351 (Beta) on pseudotyped virus (SARS-COV-2) (UniProt P0DTC2).
The target in test [3] is SARS-COV-2 spike of variant B.1.526 (Iota) on pseudotyped virus (SARS-COV-2) (UniProt P0DTC2).
In test [4] the target is SARS-COV-2 spike of variant B.1.617.2 (Delta) on pseudotyped virus (SARS-COV-2) (UniProt P0DTC2).

Turning to DMAb 2130_FcTM (antibody), the fold reduction in ID50, pseudovirus neutralization in test [1], in test [2], in test [3] and in test [4] was below 3 fold in each case.
The substance DMAb REGN10987 (antibody) yielded a fold change of pseudovirus neutralization against WA1/2020 in test [2] below 3 fold.
